{
  "source": "the supplement of paper PMC5998384",
  "key": {"[1]": {"test_system": "HeLa Kyoto", "experiment": "solubility change mitosis vs G1/S (difference of NP-40 vs SDS log2 ratios) (log2 ratio difference); higher = more soluble in mitosis"}, "[2]": {"test_system": "HeLa Kyoto", "experiment": "solubility in G1/S (NP-40 vs SDS abundance) (log2 ratio); higher = more soluble", "conditions": "cell cycle stage: G1/S"}, "[3]": {"test_system": "HeLa Kyoto", "experiment": "thermal stability score vs G1/S (z-score of summed log2 fold changes over temperatures); higher = more thermally stable than in G1/S"}, "[4]": {"conditions": "cell cycle stage: early G1 (4.5 h after nocodazole release)"}},
  "data": [
    {"substance": "MWHEARKHERKLRGMMVDYKKRAERRREYYEKIKKDPAQFLQVHGRACKVHLDSAVALAAESPVNMMPWQGDTNNMIDRFDVRAHLDHIPDYTPPLLTTISPEQESDERKCNYERYRGLVQNDFAGISEEQCLYQIYIDELYGGLQRPSEDEKKKLAEKKASIGYTYEDSTVAEVEKAAEKPEEEESAAEEESNSDEDEVIPDIDVEVDVDELNQEQVADLNKQATTYGMADGDFVRMLRKDKEEAEAIKHAKALEEEKAMYSGRRSRRQRREFREKRLRGRKISPPSYARRDSPTYDPYKRSPSESSSESRSRSRSPTPGREEKITFITSFGGSDEEAAAAAAAAAASGVTTGKPPAPPQPGGPAPGRNASARRRSSSSSSSSSASRTSSSRSSSRSSSRSRRGGGYYRSGRHARSRSRSWSRSRSRSRRYSRSRSRGRRHSGGGSRDGHRYSRSPARRGGYGPRRRSRSRSHSGDRYRRGGRGLRHHSSSRSRSSWSLSPSRSRSLTRSRSHSPSPSQSRSRSRSRSQSPSPSPAREKLTRPAASPAVGEKLKKTEPAAGKETGAAKPKLTPQEKLKLRMQKALNRQFKADKKAAQEKMIQQEHERQEREDELRAMARKIRMKERERREKEREEWERQYSRQSRSPSPRYSREYSSSRRRSRSRSRSPHYRH [CLASRP]", "values": [
      {"measurement": "solubility change mitosis (log2)", "setting": "[1]", "result": 0.526},
      {"measurement": "solubility in G1/S (log2)", "setting": "[2]", "result": -0.572},
      {"measurement": "thermal stability score", "setting": "[3]; [4]", "result": 0.728},
      {"measurement": "thermal stability score", "setting": "[3]; cell cycle stage: mitosis", "result": 0.776}
    ]},
    {"substance": "MGGGDLNLKKSWHPQTLRNVEKVWKAEQKHEAERKKIEELQRELREERAREEMQRYAEDVGAVKKKEEKLDWMYQGPGGMVNRDEYLLGRPIDKYVFEKMEEKEAGCSSETGLLPGSIFAPSGANSLLDMASKIREDPLFIIRKKEEEKKREVLNNPVKMKKIKELLQMSLEKKEKKKKKEKKKKHKKHKHRSSSSDRSSSEDEHSAGRSQKKMANSSPVLSKVPGYGLQVRNSDRNQGLQGPLTAEQKRGHGMKNHSRSRSSSHSPPRHASKKSTREAGSRDRRSRSLGRRSRSPRPSKLHNSKVNRRETGQTRSPSPKKEVYQRRHAPGYTRKLSAEELERKRQEMMENAKWREEERLNILKRHAKDEEREQRLEKLDSRDGKFIHRMKLESASTSSLEDRVKRNIYSLQRTSVALEKNFMKR [CWC25]", "values": [
      {"measurement": "solubility change mitosis (log2)", "setting": "[1]", "result": 0.463},
      {"measurement": "solubility in G1/S (log2)", "setting": "[2]", "result": -0.718},
      {"measurement": "thermal stability score", "setting": "[3]; [4]", "result": -0.522},
      {"measurement": "thermal stability score", "setting": "[3]; cell cycle stage: mitosis", "result": -0.488}
    ]},
    {"substance": "EML1", "values": [
      {"measurement": "solubility change mitosis (log2)", "setting": "[1]", "result": -0.126},
      {"measurement": "solubility in G1/S (log2)", "setting": "[2]", "result": -0.0717},
      {"measurement": "thermal stability score", "setting": "[3]; [4]", "result": 0.361},
      {"measurement": "thermal stability score", "setting": "[3]; cell cycle stage: mitosis", "result": 0.0361}
    ]},
    {"substance": "MAASRLELNLVRLLSRCEAMAAEKRDPDEWRLEKYVGALEDMLQALKVHASKPASEVINEYSWKVDFLKGMLQAEKLTSSSEKALANQFLAPGRVPTTARERVPATKTVHLQSRARYTSEMRSELLGTDSAEPEMDVRKRTGVAGSQPVSEKQLAAELDLVLQRHQNLQEKLAEEMLGLARSLKTNTLAAQSVIKKDNQTLSHSLKMADQNLEKLKTESERLEQHTQKSVNWLLWAMLIIVCFIFISMILFIRIMPKLK [USE1]", "values": [
      {"measurement": "solubility change mitosis (log2)", "setting": "[1]", "result": -0.0501},
      {"measurement": "solubility in G1/S (log2)", "setting": "[2]", "result": 0.00595},
      {"measurement": "thermal stability score", "setting": "[3]; [4]", "result": 0.334},
      {"measurement": "thermal stability score", "setting": "[3]; cell cycle stage: mitosis", "result": 0.48}
    ]},
    {"substance": "MEEELQHSHCVNCVSRRCMTRPEPGISCDLIGCPLVCGAVFHSCKADEHRLLCPFERVPCLNSDFGCPFTMARNKVAEHLEMCPASVVCCTMEWNRWPVSYADRKSYENLSRDVDEVAQLDMALALQDQRMLLESLKVATMMSKATDKVSKPREQISVKSSVPEIPHANGLVSVDEESYGALYQATVETTRSLAAALDILNTATRDIGMLNTSVPNDMDEQQNARESLEDQNLKDQDHLYEEEIGAVGGIDYNDTNQNAQSEQNGSSDLLCDLNTSSYDTSALCNGFPLENICTQVIDQNQNLHGDSKQSNLTNGDCVASSDGTSKPSSSLAVAAQLREIIPSSALPNGTVQHILMPDDEGEGELCWKKVDLGDVKNVDVLSFSHAPSFNFLSNSCWSKPKEDKAVDTSDLEVAEDPMGLQGIDLITAALLFCLGDSPGGRGISDSRMADIYHIDVGTQTFSLPSAILATSTMVGEIASASACDHANPQLSNPSPFQTLGLDLVLECVARYQPKQRSMFTFVCGQLFRRKEFSSHFKNVHGDIHAGLNGWMEQRCPLAYYGCTYSQRRFCPSIQGAKIIHDRHLRSFGVQPCVSTVLVEPARNCVLGLHNDHLSSLPFEVLQHIAGFLDGFSLCQLSCVSKLMRDVCGSLLQSRGMVILQWGKRKYPEGNSSWQIKEKVWRFSTAFCSVNEWKFADILSMADHLKKCSYNVVEKREEAIPLPCMCVTRELTKEGRSLRSVLKPVL [FBXO30]", "values": [
      {"measurement": "solubility change mitosis (log2)", "setting": "[1]", "result": 0.106},
      {"measurement": "solubility in G1/S (log2)", "setting": "[2]", "result": -0.564},
      {"measurement": "thermal stability score", "setting": "[3]; [4]", "result": 0.306},
      {"measurement": "thermal stability score", "setting": "[3]; cell cycle stage: mitosis", "result": 1.03}
    ]},
    {"substance": "MFSVLSYGRLVARAVLGGLSQTDPRAGGGGGGDYGLVTAGCGFGKDFRKGLLKKGACYGDDACFVARHRSADVLGVADGVGGWRDYGVDPSQFSGTLMRTCERLVKEGRFVPSNPIGILTTSYCELLQNKVPLLGSSTACIVVLDRTSHRLHTANLGDSGFLVVRGGEVVHRSDEQQHYFNTPFQLSIAPPEAEGVVLSDSPDAADSTSFDVQLGDIILTATDGLFDNMPDYMILQELKKLKNSNYESIQQTARSIAEQAHELAYDPNYMSPFAQFACDNGLNVRGGKPDDITVLLSIVAEYTD [PPTC7]", "values": [
      {"measurement": "solubility change mitosis (log2)", "setting": "[1]", "result": -0.0876},
      {"measurement": "solubility in G1/S (log2)", "setting": "[2]", "result": -0.0546},
      {"measurement": "thermal stability score", "setting": "[3]; [4]", "result": -1.55},
      {"measurement": "thermal stability score", "setting": "[3]; cell cycle stage: mitosis", "result": -0.178}
    ]}
  ]
}
